Consider one substance from article PMC7022633, “Gene Cloning, Recombinant Expression, Characterization, and Molecular Modeling of the Glycolytic Enzyme Triosephosphate Isomerase from Fusarium oxysporum” (Microorganisms, 2019).

This test addresses recombinant triosephosphate isomerase from Fusarium oxysporum (FoxTPI) (Fusarium oxysporum). Kind of test: SEC; gel filtration on Sephacryl 100 (16/60), 50 mM Tris pH 8.0, 0.5 mL/min; calibrated with Bio-Rad gel filtration standard; single peak at 47 mL, relative MW 56 kDa. A general note: SEC sorts molecules by how far they enter the pores of the column.

As a reminder, the stoichiometry N is a count of units in the complex or per binding partner. For the substance “recombinant triosephosphate isomerase from Fusarium oxysporum (FoxTPI) (enzyme)”, the stoichiometry N came out at 2.
